Source: patent US20050059132A1

Tests used:
[1] = target: APC mutant QGNSEDY (ALL) (human) (UniProt P04070); experiment: cell-based or functional assay
[2] = target: human wild-type activated protein C (human) (UniProt P04070); experiment: cell-based or functional assay
[3] = target: human plasma factor Va (normal, wild-type), P12259
[4] = target: R506Q FVa (FVa Leiden, activated FV:Q506), P12259
Chain of R506Q FVa (FVa Leiden, activated FV:Q506), P12259 (P12259 29-2224 R534Q): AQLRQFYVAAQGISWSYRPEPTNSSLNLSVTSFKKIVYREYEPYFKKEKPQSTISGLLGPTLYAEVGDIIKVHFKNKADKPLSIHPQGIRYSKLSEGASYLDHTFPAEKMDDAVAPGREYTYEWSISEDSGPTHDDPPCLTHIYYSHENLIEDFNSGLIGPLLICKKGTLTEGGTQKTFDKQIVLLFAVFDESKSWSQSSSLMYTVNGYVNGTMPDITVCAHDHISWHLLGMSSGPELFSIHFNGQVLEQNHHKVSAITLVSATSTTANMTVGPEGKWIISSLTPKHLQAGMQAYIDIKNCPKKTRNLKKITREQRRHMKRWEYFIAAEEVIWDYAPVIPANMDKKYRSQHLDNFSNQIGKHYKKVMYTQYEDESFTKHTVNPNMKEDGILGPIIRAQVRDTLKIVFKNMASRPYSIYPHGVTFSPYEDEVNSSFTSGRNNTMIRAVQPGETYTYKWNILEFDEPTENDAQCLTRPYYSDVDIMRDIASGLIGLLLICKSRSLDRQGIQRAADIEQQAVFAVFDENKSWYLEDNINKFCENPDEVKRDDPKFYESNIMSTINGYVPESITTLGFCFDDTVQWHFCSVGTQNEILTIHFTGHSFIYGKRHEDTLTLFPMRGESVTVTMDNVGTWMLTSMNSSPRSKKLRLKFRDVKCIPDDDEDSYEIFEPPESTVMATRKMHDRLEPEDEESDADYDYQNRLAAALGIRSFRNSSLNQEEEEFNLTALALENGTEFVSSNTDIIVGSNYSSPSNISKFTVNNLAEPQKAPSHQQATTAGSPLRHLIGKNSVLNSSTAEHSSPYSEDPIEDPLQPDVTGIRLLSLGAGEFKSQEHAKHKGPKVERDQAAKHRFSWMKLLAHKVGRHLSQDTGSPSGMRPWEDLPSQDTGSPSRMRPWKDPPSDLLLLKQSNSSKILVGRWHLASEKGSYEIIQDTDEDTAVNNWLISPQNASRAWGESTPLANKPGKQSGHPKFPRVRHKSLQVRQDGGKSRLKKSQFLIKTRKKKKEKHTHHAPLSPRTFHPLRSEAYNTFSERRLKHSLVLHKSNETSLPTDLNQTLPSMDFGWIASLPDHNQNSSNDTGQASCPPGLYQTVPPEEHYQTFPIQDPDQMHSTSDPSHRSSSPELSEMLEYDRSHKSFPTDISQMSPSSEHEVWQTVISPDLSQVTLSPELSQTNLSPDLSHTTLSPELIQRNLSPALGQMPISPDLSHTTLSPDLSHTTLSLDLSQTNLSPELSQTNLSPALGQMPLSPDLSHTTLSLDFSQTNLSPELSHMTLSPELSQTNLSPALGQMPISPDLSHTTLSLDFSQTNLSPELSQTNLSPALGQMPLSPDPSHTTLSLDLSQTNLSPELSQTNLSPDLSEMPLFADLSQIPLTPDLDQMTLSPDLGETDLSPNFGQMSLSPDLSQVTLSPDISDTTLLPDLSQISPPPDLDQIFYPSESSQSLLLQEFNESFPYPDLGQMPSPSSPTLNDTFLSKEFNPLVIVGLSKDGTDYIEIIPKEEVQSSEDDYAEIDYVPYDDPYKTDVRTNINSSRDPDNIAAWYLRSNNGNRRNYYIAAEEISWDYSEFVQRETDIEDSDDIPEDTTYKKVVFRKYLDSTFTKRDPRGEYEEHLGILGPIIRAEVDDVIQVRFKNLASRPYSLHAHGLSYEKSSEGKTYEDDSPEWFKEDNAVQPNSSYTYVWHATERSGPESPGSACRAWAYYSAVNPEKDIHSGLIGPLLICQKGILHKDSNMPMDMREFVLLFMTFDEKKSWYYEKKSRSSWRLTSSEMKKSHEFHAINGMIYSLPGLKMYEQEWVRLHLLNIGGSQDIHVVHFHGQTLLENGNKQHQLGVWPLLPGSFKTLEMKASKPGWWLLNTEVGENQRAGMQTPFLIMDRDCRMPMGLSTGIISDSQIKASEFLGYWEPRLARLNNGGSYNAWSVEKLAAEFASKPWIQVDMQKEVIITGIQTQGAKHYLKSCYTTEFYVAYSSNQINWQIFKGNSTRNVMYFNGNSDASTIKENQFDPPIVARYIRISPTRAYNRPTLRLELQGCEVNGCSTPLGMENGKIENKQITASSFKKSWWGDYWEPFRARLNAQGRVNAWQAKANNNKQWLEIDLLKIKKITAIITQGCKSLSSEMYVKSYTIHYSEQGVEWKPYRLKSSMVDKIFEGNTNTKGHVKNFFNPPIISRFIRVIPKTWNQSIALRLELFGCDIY

Chain of human plasma factor Va (normal, wild-type), P12259 (P12259 29-2224): as the sequence (P12259 29-2224 R534Q) above, with Q506R counted along it

APTT clotting time in protein S deficient plasma with 20 nM APC, in absence of protein S [1]	APTT clotting time in protein S deficient plasma with 20 nM APC, with protein S added [1]	APTT clotting time in protein S deficient plasma with 20 nM APC, at the highest protein S concentration [2]	APTT clotting time in protein S deficient plasma with 20 nM APC, in absence of protein S [2]	Molecule	loss of FVa activity over time (FXa-mediated prothrombin activation assay) on incubation of 0.76 nM FVa with 0.39 nM APC [3]	remaining FVa activity over time on incubation with 0.4 nM APC [4]
160 s	350 s	150 s	100 s	human protein S (from UniProt P07225 42-676)		
				human wild-type activated protein C (protein) chain 1: ANSFLEELRHSSLERECIEEICDFEEAKEIFQNVDDTLAFWSKHVDGDQCLVLPLEHPCASLCCGHGTCIDGIGSFSCDCRSGWEGRFCQREVSFLNCSLDNGGCTHYCLEEVGWRRCSCAPGYKLGDDLLQCHPAVKFPCGRPWKRMEKKRSHL chain 2: LIDGKMTRRGDSPWQVVLLDSKKKLACGAVLIHPSWVLTAAHCMDESKKLLVRLGEYDLRRWEKWELDLDIKEVFVHPNYSKSTTDNDIALLHLAQPATLSQTIVPICLPDSGLAERELNQAGQETLVTGWGYHSSREKEAKRNRTFVLNFIKIPVVPHNECSEVMSNMVSENMLCAGILGDRQDACEGDSGGPMVASFHGTWFLVGLVSWGEGCGLLHNYGVYTKVSRYLDWIHGHIRDKEAPQKSWAP	the initial rapid loss of FVa activity that is observed during the first 5 minutes of incubation	a slow decrease in FVa activity
